Earlier results on 1 molecule are cited in US9333241B2, “Thyroid-stimulating hormone receptor polypeptide agonist glycoforms to treat metabolic syndrome” (LipoLytics Therapeutics, LLC, priority 2005, dated 2016).

Data set [1] concerns rodent models of the metabolic syndrome. The note with it: recombinant glycoproteins produced in CHO cells.
In data set [2] the target is T1, human TSHR (Homo sapiens, UniProt P16473).
T1 construct: expressed in transfected cells; host or cells: CHO cells
The note with it: human TSHR transfected into CHO cells.

T1 sequence (P16473 21-764): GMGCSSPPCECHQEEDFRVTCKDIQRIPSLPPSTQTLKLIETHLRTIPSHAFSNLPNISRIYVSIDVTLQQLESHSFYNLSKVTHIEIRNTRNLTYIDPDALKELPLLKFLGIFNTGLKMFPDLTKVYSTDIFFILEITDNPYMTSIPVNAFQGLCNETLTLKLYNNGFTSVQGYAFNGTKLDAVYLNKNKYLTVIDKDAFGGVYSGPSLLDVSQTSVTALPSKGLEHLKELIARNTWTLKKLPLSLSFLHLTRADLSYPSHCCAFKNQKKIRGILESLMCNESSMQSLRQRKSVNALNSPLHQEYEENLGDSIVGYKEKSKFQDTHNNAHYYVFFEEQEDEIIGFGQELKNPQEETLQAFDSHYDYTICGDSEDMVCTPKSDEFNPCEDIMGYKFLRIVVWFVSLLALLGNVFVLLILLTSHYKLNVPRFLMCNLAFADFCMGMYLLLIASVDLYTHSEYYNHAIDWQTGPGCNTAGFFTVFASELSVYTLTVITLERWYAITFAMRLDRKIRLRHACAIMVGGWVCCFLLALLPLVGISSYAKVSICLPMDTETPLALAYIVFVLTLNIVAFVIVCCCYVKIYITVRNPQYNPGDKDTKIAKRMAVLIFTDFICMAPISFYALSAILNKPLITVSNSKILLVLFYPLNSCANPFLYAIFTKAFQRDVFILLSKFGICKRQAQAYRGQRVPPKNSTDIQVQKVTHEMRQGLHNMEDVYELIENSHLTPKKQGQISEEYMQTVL

B1: CGH: heterodimeric glycoprotein of GPHA2 and GPHB5 subunits, produced recombinantly in CHO cells (protein, listed as Homo sapiens)
alpha: QEAVIPGCHLHPFNVTVRSDRQGTCQGSHVAQACVGHCESSAFPSRYSVLVASGYRHNITSVSQCCTISGLKKVKVQLQCVGSRREELEIFTARACQCDMCRLSRY
beta: ASSGNLRTFVGCAVREFTFLAKKPGCRGLRITTDACWGRCETWEKPILEPPYIEAHHRVCTYNETKQVTVKLPNCAPGVDPFYTYPVAIRCDCGACSTATTECETI
With B1, the “effect of treatment in rodents” value in data set [1] is “improved glucose and lipid profiles and in reversed liver steatosis”. For the same molecule, the “activation of human TSHR” value in data set [2] is reported as “potently activates”.
